According to patent US20250206821A1 (Hoffmann-La Roche, published 2025):

Columns and labels:
[1] = molecular target: T1, VEGF (UniProt P15692-9 27-147); experiment: bridging ELISA on exchange reaction mix; VEGF capture, biocytinamid-Cy5 detection; input 1.3 µM; highest value of the assay = 100%
T1 construct: also called VEGF121
T1 sequence (looked up): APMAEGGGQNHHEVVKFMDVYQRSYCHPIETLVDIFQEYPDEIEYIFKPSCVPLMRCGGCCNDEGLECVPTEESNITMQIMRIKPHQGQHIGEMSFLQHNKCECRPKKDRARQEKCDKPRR

[2] = molecular target: T1, VEGF; experiment: bridging ELISA, VEGF capture, biocytinamid-Cy5 detection; background signal
[3] = molecular target: T1, VEGF; experiment: bridging ELISA, VEGF capture, digoxygenin-Cy5 detection; background signal
[4] = molecular target: T1, VEGF; experiment: bridging ELISA on exchange reaction mix; VEGF capture, digoxygenin-Cy5 detection; input 1.3 µM; highest value of the assay = 100%
[5] = molecular target: T1, VEGF; experiment: bridging ELISA, VEGF capture, biocytinamid-Cy5 or digoxygenin-Cy5 detection; background signal

Binder | relative signal intensity [1] [%] | binding result [2] | binding result [3] | relative signal intensity [4] [%] | binding result [5]
anti-bio/anti-fluos bsAb (bio 2/3-IgG with E357K MHCFcRP x fluos 2/3-IgG with K370E MHCFcRP) (bispecific antibody, Product of the 2/3-IgG exchange reaction, assayed as reaction mix; also called bio fluos) heavy 1: not shown light 1: DIQMTQSPSSLSASVGDRVTITCRASGNIHNYLSWYQQKPGKVPKLLIYSAKTLADGVPSRFSGSGSGTDFTLTISSLQPEDVATYYCQHFWSSIYTFGQGTKLEIKRTVAAPSVFIFPPSDEQLKSGTASVVCLLNNFYPREAKVQWKVDNALQSGNSQESVTEQDSKDSTYSLSSTLTLSKADYEKHKVYACEVTHQGLSSPVTKSFNRGEC heavy 2: not shown light 2: DIVMTQTPLSLSVTPGQPASISCKSSQSLVHSNGNTYLRWYLQKPGQSPKVLIYKVSNRVSGVPDRFSGSGSGTDFTLKISRVEAEDVGVYYCSQSTHVPWTFGQGTKLEIKRTVAAPSVFIFPPSDEQLKSGTASVVCLLNNFYPREAKVQWKVDNALQSGNSQESVTEQDSKDSTYSLSSTLTLSKADYEKHKVYACEVTHQGLSSPVTKSFNRGEC | 9 | no binding (tested: input molecule concentration 1.3 µM) |  |  | 
anti-fluos/anti-bio bsAb (fluos 2/3-IgG with E357K MHCFcRP x bio 2/3-IgG with K370E MHCFcRP) (bispecific antibody, Product of the 2/3-IgG exchange reaction, assayed as reaction mix; also called fluos bio) heavy 1: not shown light 1: DIVMTQTPLSLSVTPGQPASISCKSSQSLVHSNGNTYLRWYLQKPGQSPKVLIYKVSNRVSGVPDRFSGSGSGTDFTLKISRVEAEDVGVYYCSQSTHVPWTFGQGTKLEIKRTVAAPSVFIFPPSDEQLKSGTASVVCLLNNFYPREAKVQWKVDNALQSGNSQESVTEQDSKDSTYSLSSTLTLSKADYEKHKVYACEVTHQGLSSPVTKSFNRGEC heavy 2: not shown light 2: DIQMTQSPSSLSASVGDRVTITCRASGNIHNYLSWYQQKPGKVPKLLIYSAKTLADGVPSRFSGSGSGTDFTLTISSLQPEDVATYYCQHFWSSIYTFGQGTKLEIKRTVAAPSVFIFPPSDEQLKSGTASVVCLLNNFYPREAKVQWKVDNALQSGNSQESVTEQDSKDSTYSLSSTLTLSKADYEKHKVYACEVTHQGLSSPVTKSFNRGEC | 10.2 | no binding (tested: input molecule concentration 1.3 µM) |  |  | 
anti-dig/anti-fluos bsAb (dig 2/3-IgG with E357K MHCFcRP x fluos 2/3-IgG with K370E MHCFcRP) (bispecific antibody, Product of the 2/3-IgG exchange reaction, assayed as reaction mix; also called dig fluos; not shown: residue limits no) heavy 1: QVQLVESGGGLVKPGGSLRLSCAASGFTFSDYAMSWIRQAPGKGLEWVSSINIGATYIYYADSVKGRFTISRDNAKNSLYLQMNSLRAEDTAVYYCARPGSPYEYDKAYYSMAYWGQGTTVTVSSASTKGPSVFPLAPSSKSTSGGTAALGCLVKDYFPEPVTVSWNSGALTSGVHTFPAVLQSSGLYSLSSVVTVPSSSLGTQTYICNVNHKPSNTKVDKKVEPKSC light 1: not shown heavy 2: not shown light 2: DIVMTQTPLSLSVTPGQPASISCKSSQSLVHSNGNTYLRWYLQKPGQSPKVLIYKVSNRVSGVPDRFSGSGSGTDFTLKISRVEAEDVGVYYCSQSTHVPWTFGQGTKLEIKRTVAAPSVFIFPPSDEQLKSGTASVVCLLNNFYPREAKVQWKVDNALQSGNSQESVTEQDSKDSTYSLSSTLTLSKADYEKHKVYACEVTHQGLSSPVTKSFNRGEC |  |  | no binding (tested: input molecule concentration 1.3 µM) | 6.7 | 
anti-bio/anti-PDGF bsAb (bio 2/3-IgG with E357K MHCFcRP x PDGF 2/3-IgG with K370E MHCFcRP) (bispecific antibody, Product of the 2/3-IgG exchange reaction, assayed as reaction mix; also called bio PDGF; not shown: residue limits no) heavy 1: not shown light 1: DIQMTQSPSSLSASVGDRVTITCRASGNIHNYLSWYQQKPGKVPKLLIYSAKTLADGVPSRFSGSGSGTDFTLTISSLQPEDVATYYCQHFWSSIYTFGQGTKLEIKRTVAAPSVFIFPPSDEQLKSGTASVVCLLNNFYPREAKVQWKVDNALQSGNSQESVTEQDSKDSTYSLSSTLTLSKADYEKHKVYACEVTHQGLSSPVTKSFNRGEC heavy 2: EVQLVESGGGLVQPGGSLRLSCAASGFTFSSYWMSWVRQAPEKGLEWVSTISDGGGLTYYADSVKGRFTISRDNAKNSLYLQMNSLRAEDTAVYYCAESGGYTDWLFGYWGQGTLVTVSSASTKGPSVFPLAPSSKSTSGGTAALGCLVKDYFPEPVTVSWNSGALTSGVHTFPAVLQSSGLYSLSSVVTVPSSSLGTQTYICNVNHKPSNTKVDKKVEPKSC light 2: not shown | 10.1 | no binding (tested: input molecule concentration 1.3 µM) |  |  | 
anti-dig/anti-bio bsAb (dig 2/3-IgG with E357K MHCFcRP x bio 2/3-IgG with K370E MHCFcRP) (bispecific antibody, Product of the 2/3-IgG exchange reaction, assayed as reaction mix; also called dig bio; not shown: residue limits no) heavy 1: QVQLVESGGGLVKPGGSLRLSCAASGFTFSDYAMSWIRQAPGKGLEWVSSINIGATYIYYADSVKGRFTISRDNAKNSLYLQMNSLRAEDTAVYYCARPGSPYEYDKAYYSMAYWGQGTTVTVSSASTKGPSVFPLAPSSKSTSGGTAALGCLVKDYFPEPVTVSWNSGALTSGVHTFPAVLQSSGLYSLSSVVTVPSSSLGTQTYICNVNHKPSNTKVDKKVEPKSC light 1: not shown heavy 2: not shown light 2: DIQMTQSPSSLSASVGDRVTITCRASGNIHNYLSWYQQKPGKVPKLLIYSAKTLADGVPSRFSGSGSGTDFTLTISSLQPEDVATYYCQHFWSSIYTFGQGTKLEIKRTVAAPSVFIFPPSDEQLKSGTASVVCLLNNFYPREAKVQWKVDNALQSGNSQESVTEQDSKDSTYSLSSTLTLSKADYEKHKVYACEVTHQGLSSPVTKSFNRGEC | 9 |  |  | 6.2 | no binding (tested: input molecule concentration 1.3 µM)
anti-PDGF/anti-bio bsAb (PDGF 2/3-IgG with E357K MHCFcRP x bio 2/3-IgG with K370E MHCFcRP) (bispecific antibody, Product of the 2/3-IgG exchange reaction, assayed as reaction mix; also called PDGF bio; not shown: residue limits no) heavy 1: EVQLVESGGGLVQPGGSLRLSCAASGFTFSSYWMSWVRQAPEKGLEWVSTISDGGGLTYYADSVKGRFTISRDNAKNSLYLQMNSLRAEDTAVYYCAESGGYTDWLFGYWGQGTLVTVSSASTKGPSVFPLAPSSKSTSGGTAALGCLVKDYFPEPVTVSWNSGALTSGVHTFPAVLQSSGLYSLSSVVTVPSSSLGTQTYICNVNHKPSNTKVDKKVEPKSC light 1: not shown heavy 2: not shown light 2: DIQMTQSPSSLSASVGDRVTITCRASGNIHNYLSWYQQKPGKVPKLLIYSAKTLADGVPSRFSGSGSGTDFTLTISSLQPEDVATYYCQHFWSSIYTFGQGTKLEIKRTVAAPSVFIFPPSDEQLKSGTASVVCLLNNFYPREAKVQWKVDNALQSGNSQESVTEQDSKDSTYSLSSTLTLSKADYEKHKVYACEVTHQGLSSPVTKSFNRGEC | 10.5 | no binding (tested: input molecule concentration 1.3 µM) |  |  | 
anti-fluos/anti-dig bsAb (fluos 2/3-IgG with E357K MHCFcRP x dig 2/3-IgG with K370E MHCFcRP) (bispecific antibody, Product of the 2/3-IgG exchange reaction, assayed as reaction mix; also called fluos dig; not shown: residue limits no) heavy 1: not shown light 1: DIVMTQTPLSLSVTPGQPASISCKSSQSLVHSNGNTYLRWYLQKPGQSPKVLIYKVSNRVSGVPDRFSGSGSGTDFTLKISRVEAEDVGVYYCSQSTHVPWTFGQGTKLEIKRTVAAPSVFIFPPSDEQLKSGTASVVCLLNNFYPREAKVQWKVDNALQSGNSQESVTEQDSKDSTYSLSSTLTLSKADYEKHKVYACEVTHQGLSSPVTKSFNRGEC heavy 2: QVQLVESGGGLVKPGGSLRLSCAASGFTFSDYAMSWIRQAPGKGLEWVSSINIGATYIYYADSVKGRFTISRDNAKNSLYLQMNSLRAEDTAVYYCARPGSPYEYDKAYYSMAYWGQGTTVTVSSASTKGPSVFPLAPSSKSTSGGTAALGCLVKDYFPEPVTVSWNSGALTSGVHTFPAVLQSSGLYSLSSVVTVPSSSLGTQTYICNVNHKPSNTKVDKKVEPKSC light 2: not shown |  |  | no binding (tested: input molecule concentration 1.3 µM) | 6.3 | 
anti-bio/anti-dig bsAb (bio 2/3-IgG with E357K MHCFcRP x dig 2/3-IgG with K370E MHCFcRP) (bispecific antibody, Product of the 2/3-IgG exchange reaction, assayed as reaction mix; also called bio dig; not shown: residue limits no) heavy 1: not shown light 1: DIQMTQSPSSLSASVGDRVTITCRASGNIHNYLSWYQQKPGKVPKLLIYSAKTLADGVPSRFSGSGSGTDFTLTISSLQPEDVATYYCQHFWSSIYTFGQGTKLEIKRTVAAPSVFIFPPSDEQLKSGTASVVCLLNNFYPREAKVQWKVDNALQSGNSQESVTEQDSKDSTYSLSSTLTLSKADYEKHKVYACEVTHQGLSSPVTKSFNRGEC heavy 2: QVQLVESGGGLVKPGGSLRLSCAASGFTFSDYAMSWIRQAPGKGLEWVSSINIGATYIYYADSVKGRFTISRDNAKNSLYLQMNSLRAEDTAVYYCARPGSPYEYDKAYYSMAYWGQGTTVTVSSASTKGPSVFPLAPSSKSTSGGTAALGCLVKDYFPEPVTVSWNSGALTSGVHTFPAVLQSSGLYSLSSVVTVPSSSLGTQTYICNVNHKPSNTKVDKKVEPKSC light 2: not shown | 9.3 |  |  | 6.2 | no binding (tested: input molecule concentration 1.3 µM)
